From article PMC6411776 (2019)
“And” between values parts separate entries of the source, which are not always exact repeats. Identical values can stand only once.

What was measured:
[1] = target: Cep152 full-length FL(1–1654) (human); experiment: co-IP; IP from a mixture of lysates from HEK293 cells transfected separately with each construct; with or without provision of HA-Cep63
[2] = target: Cep63 P1(424–541), expressed in HEK293 cells; experiment: co-immunoprecipitation (IP: FLAG) and immunoblotting; conditions: transfected HEK293 cells; FLAG-Cep152 M4e co-expressed with GFP-Cep63 P1 and GFP-Cep152 M4e; blot α-GFP, P1 band; parent: 1.0
[3] = target: Cep152 M4e(1205–1272); experiment: as above; conditions: transfected HEK293 cells; FLAG-Cep152 M4e co-expressed with GFP-Cep63 P1 and GFP-Cep152 M4e; blot α-GFP, M4e band; parent: 1.0
[4] = target: Cep152 M4e(1205–1272) (human); experiment: co-IP; transfected HEK293 cells lysed in TBSN buffer [20 mM Tris-HCl (pH 8.0), 150 mM NaCl, 0.5% Nonidet P-40, 5 mM EGTA, 1.5 mM EDTA]; IP with anti-FLAG or anti-GFP antibody and protein A/G-agarose; immunoblotting
[5] = target: Cep152(1140–1295), from E. coli (human); experiment: SEC-MALS; Cep63(220–541)•Cep152(1140–1295) complex; Superdex 200 Increase 10/300 GL, 4 °C, 20 mM Tris-HCl (pH 8.0), 150 mM NaCl, 0.5 mM TCEP (the methods name the P1•M4d complex)
[6] = target: Cep152 M4e15(1205–1257), from E. coli (human); experiment: SEC-MALS; decreasing concentrations of the P1b5•M4e15 complex; biphasic change of MW, estimated Kd values of two steps of dissociation of the heterotetramer
[7] = target: Cep152 M4e15(1205–1257), from E. coli (human); experiment: AUC; sedimentation velocity of the P1b5•M4e15 complex, 95 to 530 μM; 20 °C; 20 mM Tris (pH 7.5), 100 mM NaCl, 0.5 mM TCEP
[8] = target: Cep63 P1b(490–541) (human); experiment: co-IP; transfected HEK293 cells lysed in TBSN buffer [20 mM Tris-HCl (pH 8.0), 150 mM NaCl, 0.5% Nonidet P-40, 5 mM EGTA, 1.5 mM EDTA]; IP with anti-FLAG or anti-GFP antibody and protein A/G-agarose; immunoblotting
[9] = target: Cep63 full-length (FL); experiment: co-immunoprecipitation (IP: FLAG) and immunoblotting; conditions: transfected HEK293 cells; FLAG-Cep152 WT or 6A co-expressed with HA-Cep63; blot α-HA, long exposure; parent: 1.0
[10] = target: Cep152 M4d(1205–1295), from E. coli (human); experiment: AUC; sedimentation velocity, complex at 10 μM; 4 °C; 20 mM Tris (pH 7.5), 500 mM NaCl, 10 mM 2-mercaptoethanol, 0.5 mM TCEP, 5% glycerol
[11] = target: Cep63 full-length (FL) (human); experiment: co-IP; transfected HEK293 cells lysed in TBSN buffer [20 mM Tris-HCl (pH 8.0), 150 mM NaCl, 0.5% Nonidet P-40, 5 mM EGTA, 1.5 mM EDTA]; IP with anti-FLAG or anti-GFP antibody and protein A/G-agarose; immunoblotting
[12] = target: T1, Cep152 (Homo sapiens, UniProt O94986); experiment: SEC-MALS
T1 chain: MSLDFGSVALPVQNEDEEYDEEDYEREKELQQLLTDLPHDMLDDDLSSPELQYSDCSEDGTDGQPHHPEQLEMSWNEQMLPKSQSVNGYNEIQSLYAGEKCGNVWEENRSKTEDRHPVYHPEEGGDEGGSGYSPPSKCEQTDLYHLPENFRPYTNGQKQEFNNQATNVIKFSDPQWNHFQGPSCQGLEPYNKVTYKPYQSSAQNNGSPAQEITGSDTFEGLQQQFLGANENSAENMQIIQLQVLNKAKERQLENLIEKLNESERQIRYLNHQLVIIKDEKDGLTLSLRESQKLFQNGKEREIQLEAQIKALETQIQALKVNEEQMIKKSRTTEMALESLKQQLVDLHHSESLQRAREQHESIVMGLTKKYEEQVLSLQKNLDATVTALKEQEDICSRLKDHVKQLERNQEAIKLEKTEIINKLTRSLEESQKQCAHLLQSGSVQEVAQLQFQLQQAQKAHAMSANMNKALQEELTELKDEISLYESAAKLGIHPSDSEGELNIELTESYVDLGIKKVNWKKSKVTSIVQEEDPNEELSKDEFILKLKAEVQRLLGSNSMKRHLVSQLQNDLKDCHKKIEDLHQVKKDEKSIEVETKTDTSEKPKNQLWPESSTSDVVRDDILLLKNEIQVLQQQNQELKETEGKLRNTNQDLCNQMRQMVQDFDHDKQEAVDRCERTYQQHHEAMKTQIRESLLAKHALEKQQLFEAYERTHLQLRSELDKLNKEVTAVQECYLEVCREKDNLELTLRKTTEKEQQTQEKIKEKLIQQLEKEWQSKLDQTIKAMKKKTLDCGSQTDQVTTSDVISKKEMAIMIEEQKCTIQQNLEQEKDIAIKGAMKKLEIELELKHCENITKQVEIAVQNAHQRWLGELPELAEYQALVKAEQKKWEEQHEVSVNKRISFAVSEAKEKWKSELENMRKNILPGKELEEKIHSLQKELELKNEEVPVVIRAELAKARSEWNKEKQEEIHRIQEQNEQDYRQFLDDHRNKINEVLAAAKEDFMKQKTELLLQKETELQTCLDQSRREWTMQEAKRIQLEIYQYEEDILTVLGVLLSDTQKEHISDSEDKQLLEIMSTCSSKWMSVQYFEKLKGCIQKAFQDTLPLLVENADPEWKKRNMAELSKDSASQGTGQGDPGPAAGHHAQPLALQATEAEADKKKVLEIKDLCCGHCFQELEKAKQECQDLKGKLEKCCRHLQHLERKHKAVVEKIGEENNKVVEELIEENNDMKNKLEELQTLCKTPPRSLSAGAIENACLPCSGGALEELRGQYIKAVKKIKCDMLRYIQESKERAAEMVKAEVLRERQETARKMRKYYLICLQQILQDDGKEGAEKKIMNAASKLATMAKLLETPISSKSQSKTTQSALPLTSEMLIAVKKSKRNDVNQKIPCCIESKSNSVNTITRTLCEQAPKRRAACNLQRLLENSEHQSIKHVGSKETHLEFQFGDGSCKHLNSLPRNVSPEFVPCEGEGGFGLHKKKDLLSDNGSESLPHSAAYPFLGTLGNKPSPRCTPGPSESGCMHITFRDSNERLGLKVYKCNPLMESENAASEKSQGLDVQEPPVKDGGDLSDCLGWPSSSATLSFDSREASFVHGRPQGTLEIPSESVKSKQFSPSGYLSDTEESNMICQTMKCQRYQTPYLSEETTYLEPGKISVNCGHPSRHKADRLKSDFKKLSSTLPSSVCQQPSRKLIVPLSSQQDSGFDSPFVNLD

**Q.** “Cep152 full-length FL(1–1654) (natural protein)” was tested. Which fold increase of the co-precipitate on provision of Cep63 [1] did it give?
**A.** 8 fold

**Q.** How did the ratio to parent [2] turn out when Cep152 M4e(1205–1272) 5A was run?
**A.** 0.9

**Q.** And the ratio to parent [3]?
**A.** 0.7

**Q.** With “GFP-Cep63 P1b5(502–541) (domain or fragment)” as the molecule, how does the loss of co-precipitation against the P1b–M4e pair [4] read?
**A.** 40%

**Q.** “His-Cep63(220–541), from E. coli (domain or fragment)” was tested. Which stoichiometry N (Cep63:Cep152 (printed as 2:2)) [5] did it give?
**A.** 1

**Q.** “His-Cep63 P1b5(502–541), from E. coli (pKM5500) (domain or fragment)” was tested. Which Kd of one of two steps of dissociation of the 2:2 heterotetramer (step not assigned) [6] did it give?
**A.** 60 µM

**Q.** What about the stoichiometry N (Cep63:Cep152 (printed as 2:2)) [7] of the same molecule?
**A.** 1

**Q.** Which loss of co-precipitation against the P1b–M4e pair [8] does the source give for “GFP-Cep152 M4e13(1205–1260) (domain or fragment)” here?
**A.** 40%

**Q.** Which ratio to parent [9] does the source give for “Cep152 full-length FL(1–1654) L1207A; L1210A; Y1214A; I1221A; M1225A; Y1228A” here?
**A.** 0.1

**Q.** Which stoichiometry N (Cep63:Cep152 (printed as 2:2)) [10] does the source give for “His-Cep63 P1(424–541), from E. coli (domain or fragment)” here?
**A.** 1

**Q.** Which fold increase of the co-precipitate on provision of Cep152 [11] does the source give for “Cep63 full-length (FL) (natural protein)” here?
**A.** 8 fold

**Q.** “Cep152 M4e(1205–1272) L1207A; L1210A; Y1214A; I1221A; M1225A; Y1228A” was tested. Which ratio to parent [2] did it give?
**A.** 0

**Q.** What about the ratio to parent [3] of the same molecule?
**A.** 0.1

**Q.** Which ratio to parent [2] does the source give for Cep152 M4e(1205–1272) 11A here?
**A.** 0

**Q.** And the ratio to parent [3]?
**A.** 0

B1: Cep63 (protein)
chain: MEALLEGIQNRGHGGGFLTSCEAELQELMKQIDIMVAHKKSEWEGRTHALETCLKIREQELKSLRSQLDVTHKEVGMLHQQVEEHEKIKQEMTMEYKQELKKLHEELCILKRSYEKLQKKQMREFRGNTKNHREDRSEIERLTAKIEEFRQKSLDWEKQRLIYQQQVSSLEAQRKALAEQSEIIQAQLVNRKQKLESVELSSQSEIQHLSSKLERANDTICANELEIERLTMRVNDLVGTSMTVLQEQQQKEEKLRESEKLLEALQEEKRELKAALQSQENLIHEARIQKEKLQEKVKATNTQHAVEAIRPREESLAEKKYTSQGQGDLDSVLSQLNFTHTSEDLLQAEVTCLEGSLESVSATCKQLSQELMEKYEELKRMEAHNNEYKAEIKKLKEQILQGEQSYSSALEGMKMEISHLTQELHQRDITIASTKGSSSDMEKRLRAEMQKAEDKAVEHKEILDQLESLKLENRHLSEMVMKLELGLHEAKEISLADLQENYIEALNKLVSENQQLQKDLMNTKSQLEISTQMCKKQNDRIFKPTHSRTTEFKNTEFKPTHGQHRHDGIKTEHYKTDLHSPRGQASDSINPMSRVLSPLSPQISPCSSTRSLTSYSLCKTHSLPSALDTNEANFSDTMSESMNDQEEFISSCSLPVSPLGSIATRFLEEEELRSHHILERLDAHIEELKRESEKTVRQFTALK
**Q.** With B1 as the molecule, how does the Kd [12] read?
**A.** ~60 µM and ~117 µM
